Reference: US20100330095A1 (U3 PHARMA, published 2010)

T1: human receptor tyrosine kinase AXL transcript variant 1 (human, UniProt P30530 26-894)
T1 construct: Overexpressed on RatI-AXL cl.2 and NIH3T3-AXL cl.7 fibroblasts (pLXSN-hAXL); endogenous on human cancer cell lines and HUVEC in the functional assays; also called hAXL; human AXL
T1 sequence: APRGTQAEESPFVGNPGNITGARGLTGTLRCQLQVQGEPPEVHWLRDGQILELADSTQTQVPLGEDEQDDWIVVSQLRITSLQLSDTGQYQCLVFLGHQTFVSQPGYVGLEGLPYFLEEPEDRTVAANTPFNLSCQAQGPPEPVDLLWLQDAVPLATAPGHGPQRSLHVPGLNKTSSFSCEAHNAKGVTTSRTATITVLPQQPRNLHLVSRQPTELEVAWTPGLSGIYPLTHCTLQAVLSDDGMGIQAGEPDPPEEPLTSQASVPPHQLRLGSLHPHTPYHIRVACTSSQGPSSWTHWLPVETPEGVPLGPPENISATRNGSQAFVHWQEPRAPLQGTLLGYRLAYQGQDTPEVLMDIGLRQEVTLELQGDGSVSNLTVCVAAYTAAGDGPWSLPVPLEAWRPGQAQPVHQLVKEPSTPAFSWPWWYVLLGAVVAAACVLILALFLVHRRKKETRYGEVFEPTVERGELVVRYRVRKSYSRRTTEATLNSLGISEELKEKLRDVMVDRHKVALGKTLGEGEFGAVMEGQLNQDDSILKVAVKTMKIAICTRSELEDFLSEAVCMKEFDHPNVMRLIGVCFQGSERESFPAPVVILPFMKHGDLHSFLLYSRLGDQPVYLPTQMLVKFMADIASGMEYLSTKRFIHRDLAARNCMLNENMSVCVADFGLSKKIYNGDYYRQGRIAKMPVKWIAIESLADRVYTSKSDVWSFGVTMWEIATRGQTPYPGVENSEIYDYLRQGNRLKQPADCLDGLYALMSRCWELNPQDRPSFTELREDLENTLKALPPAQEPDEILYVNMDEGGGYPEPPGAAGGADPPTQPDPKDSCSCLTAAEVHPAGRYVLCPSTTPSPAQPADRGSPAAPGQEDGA


Biological target: T1, human receptor tyrosine kinase AXL …
Assay: FACS Scatchard (apparent KD) on human AXL overexpressing NIH3T3 cells
Description: Human AXL overexpression NIH3T3 cells were harvested by incubation with 10 mM EDTA in PBS and resuspended at 6 million cells per ml in FACS buffer (PBS pH 7.4, 3% FCS, 0.1% NaN₃). […] Antibody binding was allowed to proceed for 2 hours on ice. Then, cells were washed twice with 250 μl FACS buffer per well, and resuspended in 200 μl of secondary antibody (anti-rat-PE; Jackson) diluted 1:50 in FACS buffer. After 45 minutes of incubation, cells were again washed twice in FACS buffer and resuspended in […] PBS for FACS analysis. Analysis was carried out on a Beckman-Coulter FACS FC500. To determine the apparent affinity constant KDapp, mean fluorescence values were plotted against the ratio of mean fluorescence and the corresponding antibody concentration ([M]).

Kd	Binder
0.6 nM	ch11B7-IgG2 (antibody, V domains shown, chimeric rat/human IgG2 kappa, expressed in HEK 293 cells; also called chn11B7 IgG2) VH: EVQLQESGPGLVKPSQSLSLTCSVTGYSITSNYWGWIRKFPGDKMEWMGYITYSGSTSYNPSLKSRISITRDTSKNQFFLQLNSVTSEDTATYYCAITTFYYWGQGVMVTVSS VL: DIQMTQAPSSLPASLGDRVTITCRASQDIGNYLRWFQQKPGKSPRLMISGATNLAAGVPSRFSGSRSGSDYSLTISSLESEDMADYYCLQSKESPWTFGGGTKLELKR
0.9 nM	ch11D5-IgG2 (antibody, V domains shown, chimeric rat/human IgG2 kappa, expressed in HEK 293 cells; also called chn11D5 IgG2) VH: EVQLQESGPGLVKPSQSLSLTCSVTGYSITSNYWGWIRKFPGNKMEWIGHITNSGNTTYNPSLKSRISISRDTSRNQFFLQLNSVTTEDTATYYCAKGAFDYWGQGVMVTVSS VL: DIQMTQSPSSMSTSLGDRVTITCRASQDIGNYLSWFQQKVGKSPRRMIYGAIKLAVGVPSRFSGSRSGSDYSLTISSLESEDMAIYYCLQYIQFPLTFGSGTKLELKR
